Assay results published in US20080292632A1 (US Dept. of Health and Human Services, published 2008).

What was measured:
[1] = target: T1, IRTA2 extracellular domain-Fc fusion protein (human, UniProt Q96RD9 16-851); test: equilibrium ELISA (Friguet)
T1 construct: extracellular domain; also called IRTA2-Fc; IRTA2-HFc; not shown: human IgG1 hinge and Fc
T1 sequence (looked up): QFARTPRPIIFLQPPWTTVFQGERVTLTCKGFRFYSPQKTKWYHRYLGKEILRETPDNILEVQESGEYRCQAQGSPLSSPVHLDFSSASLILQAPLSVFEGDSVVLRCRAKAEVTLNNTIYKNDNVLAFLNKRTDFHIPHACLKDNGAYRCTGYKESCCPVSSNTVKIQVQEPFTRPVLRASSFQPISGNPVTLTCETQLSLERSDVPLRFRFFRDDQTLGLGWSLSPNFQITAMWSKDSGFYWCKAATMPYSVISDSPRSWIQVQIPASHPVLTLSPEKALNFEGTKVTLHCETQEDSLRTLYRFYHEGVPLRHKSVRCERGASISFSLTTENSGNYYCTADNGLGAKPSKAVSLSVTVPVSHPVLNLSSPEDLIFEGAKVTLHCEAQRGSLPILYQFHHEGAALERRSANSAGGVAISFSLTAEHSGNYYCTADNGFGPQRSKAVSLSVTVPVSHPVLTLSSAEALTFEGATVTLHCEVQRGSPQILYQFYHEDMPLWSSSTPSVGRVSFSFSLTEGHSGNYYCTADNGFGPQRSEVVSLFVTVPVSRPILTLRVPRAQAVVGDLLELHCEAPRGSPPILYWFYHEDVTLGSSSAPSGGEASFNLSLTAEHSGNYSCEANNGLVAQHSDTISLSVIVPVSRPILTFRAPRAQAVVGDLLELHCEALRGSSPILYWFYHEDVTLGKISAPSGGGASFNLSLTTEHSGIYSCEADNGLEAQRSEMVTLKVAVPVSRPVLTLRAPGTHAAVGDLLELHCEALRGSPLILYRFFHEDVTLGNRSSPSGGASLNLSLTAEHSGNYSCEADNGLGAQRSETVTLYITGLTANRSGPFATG
Method: ELISA. In a typical indirect ELISA for the screening of hybridomas, microtiter plates (MaxiSorp; Nalge Nunc, Rochester, N.Y.) were coated with 100 ng/50 μl/well of goat anti-human IgG in phosphate buffered saline (PBS) for 2 hours at room temperature. Next, 50 ng/100 μl/well of IRTA2-Fc in blocking buffer (25% DMEM, 5% FBS, 25 mM HEPES, 0.5% bovine serum albumin, 0.1% sodium azide in PBS) was added to each well and incubated for 2 hours at room temperature. After washing with PBS containing 0.05% Tween 20, 50 μl of the hybridoma supernatants were added and incubated for 2 hours at room temperature. After washing, the bound MAbs were detected by a 2-hour incubation with horseradish peroxidase (HRP)-labeled goat anti-mouse IgG (Jackson ImmunoResearch, Grove, Pa.) followed by tetramethylbenzidine (TMB) substrate kit (Pierce, Rockford, Ill.). In some experiments, other IRTA-Fc fusion proteins were used instead of IRTA2-Fc.
Affinity Determination. Affinities (dissociation constant, Kd) of the anti-IRTA2 MAbs to IRTA2-Fc were determined by ELISA as previously described (Friguet et al., J Immunol Methods 77:305-19, 1985). Briefly, each MAb was incubated with various concentrations of IRTA2-Fc at room temperature for 20 hours to reach equilibrium; then the amount of MAb that remains unbound at equilibrium was measured by the indirect ELISA as described above.

[2] = target: T2, CD30 on transfected 293T cells (human, UniProt P28908 19-595); test: cell-ELISA, formalin-fixed cells
T2 construct: whole, on cells
T2 sequence (looked up): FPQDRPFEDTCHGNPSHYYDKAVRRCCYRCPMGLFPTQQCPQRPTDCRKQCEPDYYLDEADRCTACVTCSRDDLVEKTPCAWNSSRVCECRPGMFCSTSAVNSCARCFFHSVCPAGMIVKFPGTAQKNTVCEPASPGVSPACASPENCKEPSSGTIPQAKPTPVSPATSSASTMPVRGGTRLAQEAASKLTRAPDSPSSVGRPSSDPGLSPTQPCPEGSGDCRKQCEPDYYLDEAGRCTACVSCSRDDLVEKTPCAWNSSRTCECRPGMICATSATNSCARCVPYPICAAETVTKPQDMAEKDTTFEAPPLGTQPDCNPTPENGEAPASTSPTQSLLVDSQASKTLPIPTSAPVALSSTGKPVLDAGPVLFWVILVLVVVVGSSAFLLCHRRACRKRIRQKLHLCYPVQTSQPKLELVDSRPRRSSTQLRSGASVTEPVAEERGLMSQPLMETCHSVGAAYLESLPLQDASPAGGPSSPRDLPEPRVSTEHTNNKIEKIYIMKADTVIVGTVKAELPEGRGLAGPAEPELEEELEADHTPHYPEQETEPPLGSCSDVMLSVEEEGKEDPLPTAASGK
Method: Cell-ELISA. […] After overnight culture, the cells were fixed with 3.7% formalin in the culture medium at room temperature overnight. Incubation with a dilution of MAbs, secondary antibody and substrate was performed as described in the ELISA protocol except that 1% FBS in PBS was used for washing.

CD30-Fc fusion protein = target: T3, CD30-Fc fusion protein (human, UniProt P28908 19-385); test: ELISA
T3 construct: extracellular domain; Negative control antigen; not shown: human IgG1 hinge and Fc of pRB-2k1-CD30
T3 sequence (looked up): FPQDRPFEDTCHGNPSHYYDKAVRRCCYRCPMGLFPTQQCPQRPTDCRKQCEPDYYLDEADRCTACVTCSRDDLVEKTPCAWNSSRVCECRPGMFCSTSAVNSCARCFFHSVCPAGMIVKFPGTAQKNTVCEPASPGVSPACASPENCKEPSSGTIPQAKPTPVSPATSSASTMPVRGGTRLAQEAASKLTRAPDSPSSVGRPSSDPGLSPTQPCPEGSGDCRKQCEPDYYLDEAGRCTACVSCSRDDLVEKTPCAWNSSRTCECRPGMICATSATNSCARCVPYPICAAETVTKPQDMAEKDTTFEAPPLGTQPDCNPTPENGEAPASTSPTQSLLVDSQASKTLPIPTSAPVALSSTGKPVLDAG

B1: F25 (antibody, IgG2a, V domains shown)
VH: EVQLQQSGPELVKPGTSVKMSCKASGYSFTGYFMNWMMQNHGKSLEWIGRINLYNGDTFYNQKFKDKATLTVDKSSNTVHMEFRSLASEDSAVYYCASSLYYFDYWGQGTTFTVSS
VL: DIVMTQSHKFMSTSVGDRVNITCKASQDVGTNVAWYQQKPGQSPKLLIYWASTRQTGVPDRFTGSGSGTDFTLTISNVQSEDLSDYFCQQYSSYPLTFGAGTKLELKR
notes: mouse hybridoma MAb, IgG2a, kappa; also called MAb F25; biotin-MAb F25
With B1 the Kd [1] was 1.2 nM, the binding result [2] was “no binding (tested: ’0.2)” and the binding result (CD30-Fc fusion protein) was “no binding”.
